Laboratory results as given in IntAct's records for PubMed 23208550.

B1: Arrestin domain-containing protein 3 (Homo sapiens), Q96B67 (parent)
chain: MVLGKVKSLTISFDCLNDSNVPVYSSGDTVSGRVNLEVTGEIRVKSLKIHARGHAKVRWTESRNAGSNTAYTQNYTEEVEYFNHKDILIGHERDDDNSEEGFHTIHSGRHEYAFSFELPQTPLATSFEGRHGSVRYWVKAELHRPWLLPVKLKKEFTVFEHIDINTPSLLSPQAGTKEKTLCCWFCTSGPISLSAKIERKGYTPGESIQIFAEIENCSSRMVVPKAAIYQTQAFYAKGKMKEVKQLVANLRGESLSSGKTETWNGKLLKIPPVSPSILDCSIIRVEYSLMVYVDIPGAMDLFLNLPLVIGTIPLHPFGSRTSSVSSQCSMNMNWLSLSLPERPEAPPSYAEVVTEEQRRNNLAPVSACDDFERALQGPLFAYIQEFRFLPPPLYSEIDPNPDQSADDRPSCPSR

Key:
[1] = variants of: B1; settings: with nedd4_human NEDD4, P46934
Sequence of nedd4_human NEDD4, P46934 (P46934 whole entry): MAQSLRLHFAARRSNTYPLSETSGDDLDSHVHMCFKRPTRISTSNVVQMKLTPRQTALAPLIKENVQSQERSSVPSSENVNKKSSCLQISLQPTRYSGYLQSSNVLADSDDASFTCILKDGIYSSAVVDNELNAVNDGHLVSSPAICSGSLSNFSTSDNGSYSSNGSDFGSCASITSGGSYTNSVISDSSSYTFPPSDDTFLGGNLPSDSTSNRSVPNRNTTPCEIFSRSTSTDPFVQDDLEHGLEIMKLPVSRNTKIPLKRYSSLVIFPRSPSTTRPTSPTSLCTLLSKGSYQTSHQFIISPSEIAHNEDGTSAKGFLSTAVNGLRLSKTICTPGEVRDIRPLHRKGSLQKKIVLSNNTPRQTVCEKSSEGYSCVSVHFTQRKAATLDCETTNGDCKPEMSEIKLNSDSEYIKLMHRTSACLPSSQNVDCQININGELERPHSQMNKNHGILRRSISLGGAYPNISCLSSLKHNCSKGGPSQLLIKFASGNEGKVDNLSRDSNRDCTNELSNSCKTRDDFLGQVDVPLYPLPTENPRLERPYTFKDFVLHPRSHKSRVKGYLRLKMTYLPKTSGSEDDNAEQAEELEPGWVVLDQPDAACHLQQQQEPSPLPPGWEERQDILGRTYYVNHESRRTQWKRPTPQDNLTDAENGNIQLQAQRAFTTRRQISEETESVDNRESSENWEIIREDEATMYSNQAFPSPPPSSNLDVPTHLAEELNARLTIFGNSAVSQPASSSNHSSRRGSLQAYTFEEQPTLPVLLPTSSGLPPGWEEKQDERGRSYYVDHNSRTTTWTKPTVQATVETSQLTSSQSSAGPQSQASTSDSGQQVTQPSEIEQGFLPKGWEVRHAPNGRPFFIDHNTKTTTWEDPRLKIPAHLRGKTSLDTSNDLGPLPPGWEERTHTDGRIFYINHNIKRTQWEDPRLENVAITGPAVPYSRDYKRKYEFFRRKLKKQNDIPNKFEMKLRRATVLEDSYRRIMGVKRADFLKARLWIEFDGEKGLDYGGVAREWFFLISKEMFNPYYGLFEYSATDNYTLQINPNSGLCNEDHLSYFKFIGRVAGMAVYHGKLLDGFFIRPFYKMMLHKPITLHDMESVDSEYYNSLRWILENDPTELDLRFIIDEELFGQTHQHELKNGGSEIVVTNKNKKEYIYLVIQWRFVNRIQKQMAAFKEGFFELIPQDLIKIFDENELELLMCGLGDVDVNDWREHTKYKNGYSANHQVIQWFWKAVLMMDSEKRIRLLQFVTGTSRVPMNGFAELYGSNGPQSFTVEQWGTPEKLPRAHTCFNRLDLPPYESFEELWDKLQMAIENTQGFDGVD

hgs_human HGS, O14964 = variants of: B1; settings: with hgs_human HGS
Sequence of hgs_human HGS, O14964 (O14964 whole entry): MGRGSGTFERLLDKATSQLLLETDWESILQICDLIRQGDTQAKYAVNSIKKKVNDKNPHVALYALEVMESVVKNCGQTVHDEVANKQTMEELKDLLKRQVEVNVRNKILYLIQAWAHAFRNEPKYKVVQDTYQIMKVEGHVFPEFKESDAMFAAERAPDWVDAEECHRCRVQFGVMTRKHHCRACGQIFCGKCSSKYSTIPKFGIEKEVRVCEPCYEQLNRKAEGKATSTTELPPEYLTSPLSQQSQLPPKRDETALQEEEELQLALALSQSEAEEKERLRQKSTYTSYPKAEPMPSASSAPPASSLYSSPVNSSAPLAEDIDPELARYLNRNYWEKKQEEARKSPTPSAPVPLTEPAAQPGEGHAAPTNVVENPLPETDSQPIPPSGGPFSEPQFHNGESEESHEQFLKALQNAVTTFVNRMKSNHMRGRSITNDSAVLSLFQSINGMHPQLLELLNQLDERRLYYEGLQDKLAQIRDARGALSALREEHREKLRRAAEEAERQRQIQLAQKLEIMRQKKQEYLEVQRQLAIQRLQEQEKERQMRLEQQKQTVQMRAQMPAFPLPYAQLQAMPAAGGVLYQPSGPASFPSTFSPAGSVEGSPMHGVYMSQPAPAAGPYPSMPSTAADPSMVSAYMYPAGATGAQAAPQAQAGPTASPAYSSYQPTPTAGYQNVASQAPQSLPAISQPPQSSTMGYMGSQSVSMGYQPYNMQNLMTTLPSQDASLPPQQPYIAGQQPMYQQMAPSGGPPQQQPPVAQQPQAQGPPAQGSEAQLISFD

[2] = variants of: B1; settings: with adrb2_human ADRB2, P07550
[3] = variants of: B1; settings: with adrb2_human ADRB2, P07550; remark: listed apart in the source

Row | Variant | effect of a mutation on the interaction [1] | effect of a mutation on the interaction (hgs_human HGS, O14964) | effect of a mutation on the interaction [2] | effect of a mutation on the interaction [3]
1 | MVLGKVKSLTISFDCLNDSNVPVYSSGDTVSGRVNLEVTGEIRVKSLKIHARGHAKVRWTESRNAGSNTAYTQNYTEEVEYFNHKDILIGHERDDDNSEEGFHTIHSGRHEYAFSFELPQTPLATSFEGRHGSVRYWVKAELHRPWLLPVKLKKEFTVFEHIDINTPSLLSPQAGTKEKTLCCWFCTSGPISLSAKIERKGYTPGESIQIFAEIENCSSRMVVPKAAIYQTQAFYAKGKMKEVKQLVANLRGESLSSGKTETWNGKLLKIPPVSPSILDCSIIRVEYSLMVYVDIPGAMDLFLNLPLVIGTIPLHPFGSRTSSVSSQCSMNMNWLSLSLPERPEAAPSYAEVVTEEQRRNNLAPVSACDDFERALQGPLFAYIQEFRFLPPPLYSEIDPNPDQSADDRPSCPSR [P346A] | disrupting interaction | disrupting interaction | decreasing interaction | disrupting interaction
2 | MVLGKVKSLTISFDCLNDSNVPVYSSGDTVSGRVNLEVTGEIRVKSLKIHARGHAKVRWTESRNAGSNTAYTQNYTEEVEYFNHKDILIGHERDDDNSEEGFHTIHSGRHEYAFSFELPQTPLATSFEGRHGSVRYWVKAELHRPWLLPVKLKKEFTVFEHIDINTPSLLSPQAGTKEKTLCCWFCTSGPISLSAKIERKGYTPGESIQIFAEIENCSSRMVVPKAAIYQTQAFYAKGKMKEVKQLVANLRGESLSSGKTETWNGKLLKIPPVSPSILDCSIIRVEYSLMVYVDIPGAMDLFLNLPLVIGTIPLHPFGSRTSSVSSQCSMNMNWLSLSLPERPEAPASYAEVVTEEQRRNNLAPVSACDDFERALQGPLFAYIQEFRFLPPPLYSEIDPNPDQSADDRPSCPSR [P347A] | disrupting interaction | disrupting interaction | decreasing interaction | disrupting interaction
